# B1: Fab nnHTN-Gn2 (Fab, V domains shown)
# VH: QSLEESGGRLVTPGTPLTLTCTVSGFSLSNYNMQWVRQAPGKGLEWIGIVYTGGVAWYARWAKGRFTISRTSTTVDLKITSPTTEDTATYFCARAYTSNSDIVFDPWGPGTLVTVSS
# VL: GQVLTQTPASVSAAVGGTVTIKCQASQSVSTALAWYQQKPGQRPKLLIYLASTLTSGVPSRFKGSGSGTEFTLTISGVECDDAATYYCQQGYSYSNVDNSFGGGTEVVVK
# notes: also called Fab nnHTNV-Gn2
# B2: Fab HTN-Gn1 (Fab, V domains shown)
# VH: QSLVESGGDLVKPEGSLTLTCTASGFSFSSTHWICWVRQAPGKGLEWIACIYVGNTYDSYYANWAKGRFTISKTSSTTVTLQMTTLTAADTATYFCARSGSVFGVVSLWGPGTLVTVSS
# VL: GQVLTQTPASVSEPVEGTVTIKCQASQSINNWLSWYQQRPGQPPKLLIYDASTVASGVSSRFKGSGSGTEFTLTISDLECADAATYACQSYGYGISITDNSAFGGGTEVVVR
# notes: also called HTN-Gn1-Fab; HTNV-Gn1-Fab
# Target: T1, recombinant HTNV Gn ectodomain (residues 18 to 371) (Hantaan virus (Orthohantavirus …))
# T1 construct: also called N-terminal ectodomain of HTNV Gn; soluble HTNV Gn ectodomain
# Assay: crystal structure
# Settings: both partners purified
row,Binder,binding result
1,B1,binds
2,B2,binds
